From the supplement of paper PMC10065799, “High-throughput profiling of sequence recognition by tyrosine kinases and SH2 domains using bacterial peptide display” (eLife, 2023)

Each sequence was assayed against Hck (UniProt P08631) (assay: phosphorylation enrichment, bacterial display (enrichment ratio); higher = better substrate or ligand; peptides without Tyr show the background).
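Note: 11-residue human phosphosite peptides and single-mutation variants displayed on the E. coli surface, counted by deep sequencing, each peptide's frequency after selection divided by its frequency in the unselected input library; frequency after pTyr selection over input frequency; kinase dosed for 20-30% of maximal phosphorylation in three min.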

Hck, sequence (P08631 whole entry, looked up): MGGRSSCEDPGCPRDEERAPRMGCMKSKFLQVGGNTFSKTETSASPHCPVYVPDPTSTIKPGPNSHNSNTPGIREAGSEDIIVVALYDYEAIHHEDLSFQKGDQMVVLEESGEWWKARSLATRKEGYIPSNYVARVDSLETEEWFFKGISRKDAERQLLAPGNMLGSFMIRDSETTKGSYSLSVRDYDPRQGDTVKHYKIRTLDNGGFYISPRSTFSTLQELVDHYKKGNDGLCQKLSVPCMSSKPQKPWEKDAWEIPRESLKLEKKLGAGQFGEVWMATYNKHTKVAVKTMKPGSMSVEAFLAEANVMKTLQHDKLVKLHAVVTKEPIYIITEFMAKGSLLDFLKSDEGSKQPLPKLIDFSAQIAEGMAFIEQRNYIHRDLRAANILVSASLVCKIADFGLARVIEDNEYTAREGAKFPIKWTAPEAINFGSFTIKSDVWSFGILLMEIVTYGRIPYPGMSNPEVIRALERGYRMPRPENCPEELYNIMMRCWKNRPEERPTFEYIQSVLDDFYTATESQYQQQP

| Sequence | phosphorylation enrichment |
| --- | --- |
| GFRVCYTPDSR [PTPRF_Y451_Y450C_YF] | 0.507 |
| HEGKIYEFNQV [ZNF665_Y162_YF] | 1.64 |
| RLSELYLRRNP [CFAP410_Y68_R73P] | 0.631 |
| RRGTRYMFSRP [RPL21_Y13] | 0.853 |
| FIILIYAMKKK [SLCO1B1_Y645_YF] | 0.465 |
| LIEQAYDNPHE [PRPF8_Y871] | 0.86 |
| FKNGDYSEVMK [LCT_Y1638_N1639S] | 0.413 |
| IIEDPYYGNDF [ACP1_Y132_S137F] | 1.55 |
| HTLMKYTDGDQ [PUS7L_Y94_I92M] | 0.682 |
| VIKDKYPKAHF [APTX_Y209_R213H_YF] | 0.284 |
| AGQEDYDRLRP [CDC42_Y64] | 0.785 |
| GTVRDYPDFSP [ANXA3_Y15] | 0.49 |
| SGPRCYTIAAL [TTR_Y125_R124C] | 0.354 |
| YGGRDYSLDEF [MYOF_Y1705] | 0.603 |
| SNKLTYGTMVF [ACOX1_Y275] | 2.9 |
| EPTPGYEVSQR [TSC2_Y1788_G1791S] | 0.441 |
| RKLASYRSCLL [DHX37_Y1080] | 0.468 |

| Sequence | phosphorylation enrichment |
| --- | --- |
| QDLLLYQTHSE [PKHD1_Y255_F253L] | 1.48 |
| GGRKGYGDFSR [RECQL5_Y478] | 0.33 |
| KVFRVYQGQQP [MUTYH_Y494] | 0.388 |
| LKLKAYRFSIS [LCT_Y974_V971L] | 0.882 |
| GHLFAYDWIRI [BEST1_Y227_S231R_YF] | 1.6 |
| AFPVSYSSSSA [RET_Y687_G691S] | 0.463 |
| FIGCIYLYLTK [GARS1_Y414_R412C] | 0.373 |
| GFEEAYSVSKK [PAFAH1B1_Y28_F31S_YF] | 0.487 |
| FLLRVYSIFSK [SGCE_Y38_T36R] | 0.504 |
| VGGRIYIDDGL [PKLR_Y218] | 0.463 |
| MDYRSYPREYG [RBM10_Y44] | 0.41 |
| EGELRYMHSRV [ABCD1_Y281_K276E] | 0.34 |
| AIIGIYNLRDD [CDH23_Y2949_I2950N] | 5.28 |
| KAIMTYVFSFY [ACTN4_Y260_S262F] | 0.464 |
| TKAEKYVNKAK [PLCG1_Y991] | 0.343 |
| PELIDYGKLWK [ACTN1_Y193_R197W] | 0.393 |

What follows are sequences tested against FGFR1 (UniProt P11362) in the same assay as above.
FGFR1, sequence (P11362 whole entry, looked up): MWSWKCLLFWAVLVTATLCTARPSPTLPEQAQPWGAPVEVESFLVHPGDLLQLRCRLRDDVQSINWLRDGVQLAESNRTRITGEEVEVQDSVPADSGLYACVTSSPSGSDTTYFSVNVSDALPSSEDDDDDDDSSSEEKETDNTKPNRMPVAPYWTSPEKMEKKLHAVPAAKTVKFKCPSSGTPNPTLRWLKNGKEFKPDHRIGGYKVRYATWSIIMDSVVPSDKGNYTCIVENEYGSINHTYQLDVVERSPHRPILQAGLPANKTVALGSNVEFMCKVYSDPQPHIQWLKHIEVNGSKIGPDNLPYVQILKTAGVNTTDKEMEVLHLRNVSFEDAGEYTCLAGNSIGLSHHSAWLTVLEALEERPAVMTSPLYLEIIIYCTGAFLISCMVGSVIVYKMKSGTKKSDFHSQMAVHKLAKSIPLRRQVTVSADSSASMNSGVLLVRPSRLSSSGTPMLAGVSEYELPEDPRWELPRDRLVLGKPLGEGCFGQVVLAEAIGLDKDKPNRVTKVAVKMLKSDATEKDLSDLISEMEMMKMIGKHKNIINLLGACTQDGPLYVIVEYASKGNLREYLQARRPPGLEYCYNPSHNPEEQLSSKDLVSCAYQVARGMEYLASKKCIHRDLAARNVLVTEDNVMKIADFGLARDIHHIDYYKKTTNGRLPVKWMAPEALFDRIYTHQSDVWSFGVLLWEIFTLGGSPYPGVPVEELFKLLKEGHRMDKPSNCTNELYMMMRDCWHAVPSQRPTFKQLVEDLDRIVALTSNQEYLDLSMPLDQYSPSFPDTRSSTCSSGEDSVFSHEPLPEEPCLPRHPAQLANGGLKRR

| Sequence | phosphorylation enrichment |
| --- | --- |
| GFRVCYTPDSR [PTPRF_Y451_Y450C_YF] | 0.472 |
| HEGKIYEFNQV [ZNF665_Y162_YF] | 0.665 |
| RLSELYLRRNP [CFAP410_Y68_R73P] | 0.381 |
| RRGTRYMFSRP [RPL21_Y13] | 0.859 |
| FIILIYAMKKK [SLCO1B1_Y645_YF] | 0.509 |
| LIEQAYDNPHE [PRPF8_Y871] | 0.566 |
| FKNGDYSEVMK [LCT_Y1638_N1639S] | 0.57 |
| IIEDPYYGNDF [ACP1_Y132_S137F] | 3.18 |
| HTLMKYTDGDQ [PUS7L_Y94_I92M] | 0.813 |
| VIKDKYPKAHF [APTX_Y209_R213H_YF] | 0.38 |
| AGQEDYDRLRP [CDC42_Y64] | 0.576 |
| GTVRDYPDFSP [ANXA3_Y15] | 0.508 |
| SGPRCYTIAAL [TTR_Y125_R124C] | 0.392 |
| YGGRDYSLDEF [MYOF_Y1705] | 0.582 |
| SNKLTYGTMVF [ACOX1_Y275] | 0.459 |
| EPTPGYEVSQR [TSC2_Y1788_G1791S] | 0.46 |
| RKLASYRSCLL [DHX37_Y1080] | 0.581 |

| Sequence | phosphorylation enrichment |
| --- | --- |
| QDLLLYQTHSE [PKHD1_Y255_F253L] | 0.713 |
| GGRKGYGDFSR [RECQL5_Y478] | 0.345 |
| KVFRVYQGQQP [MUTYH_Y494] | 0.439 |
| LKLKAYRFSIS [LCT_Y974_V971L] | 0.845 |
| GHLFAYDWIRI [BEST1_Y227_S231R_YF] | 1.68 |
| AFPVSYSSSSA [RET_Y687_G691S] | 0.38 |
| FIGCIYLYLTK [GARS1_Y414_R412C] | 0.535 |
| GFEEAYSVSKK [PAFAH1B1_Y28_F31S_YF] | 0.374 |
| FLLRVYSIFSK [SGCE_Y38_T36R] | 0.574 |
| VGGRIYIDDGL [PKLR_Y218] | 0.575 |
| MDYRSYPREYG [RBM10_Y44] | 0.404 |
| EGELRYMHSRV [ABCD1_Y281_K276E] | 0.428 |
| AIIGIYNLRDD [CDH23_Y2949_I2950N] | 0.478 |
| KAIMTYVFSFY [ACTN4_Y260_S262F] | 0.559 |
| TKAEKYVNKAK [PLCG1_Y991] | 0.387 |
| PELIDYGKLWK [ACTN1_Y193_R197W] | 0.535 |

Each sequence was assayed on AncSZ in the same assay as above.

| Sequence | phosphorylation enrichment |
| --- | --- |
| GFRVCYTPDSR [PTPRF_Y451_Y450C_YF] | 1.26 |
| HEGKIYEFNQV [ZNF665_Y162_YF] | 0.796 |
| RLSELYLRRNP [CFAP410_Y68_R73P] | 0.813 |
| RRGTRYMFSRP [RPL21_Y13] | 0.952 |
| FIILIYAMKKK [SLCO1B1_Y645_YF] | 0.323 |
| LIEQAYDNPHE [PRPF8_Y871] | 1.12 |
| FKNGDYSEVMK [LCT_Y1638_N1639S] | 0.697 |
| IIEDPYYGNDF [ACP1_Y132_S137F] | 1.79 |
| HTLMKYTDGDQ [PUS7L_Y94_I92M] | 1.34 |
| VIKDKYPKAHF [APTX_Y209_R213H_YF] | 0.523 |
| AGQEDYDRLRP [CDC42_Y64] | 1.13 |
| GTVRDYPDFSP [ANXA3_Y15] | 0.759 |
| SGPRCYTIAAL [TTR_Y125_R124C] | 0.617 |
| YGGRDYSLDEF [MYOF_Y1705] | 0.981 |
| SNKLTYGTMVF [ACOX1_Y275] | 0.773 |
| EPTPGYEVSQR [TSC2_Y1788_G1791S] | 0.83 |
| RKLASYRSCLL [DHX37_Y1080] | 0.75 |

| Sequence | phosphorylation enrichment |
| --- | --- |
| QDLLLYQTHSE [PKHD1_Y255_F253L] | 1.86 |
| GGRKGYGDFSR [RECQL5_Y478] | 0.416 |
| KVFRVYQGQQP [MUTYH_Y494] | 0.569 |
| LKLKAYRFSIS [LCT_Y974_V971L] | 1.76 |
| GHLFAYDWIRI [BEST1_Y227_S231R_YF] | 1 |
| AFPVSYSSSSA [RET_Y687_G691S] | 0.598 |
| FIGCIYLYLTK [GARS1_Y414_R412C] | 1.02 |
| GFEEAYSVSKK [PAFAH1B1_Y28_F31S_YF] | 0.697 |
| FLLRVYSIFSK [SGCE_Y38_T36R] | 0.886 |
| VGGRIYIDDGL [PKLR_Y218] | 0.742 |
| MDYRSYPREYG [RBM10_Y44] | 0.621 |
| EGELRYMHSRV [ABCD1_Y281_K276E] | 0.688 |
| AIIGIYNLRDD [CDH23_Y2949_I2950N] | 0.821 |
| KAIMTYVFSFY [ACTN4_Y260_S262F] | 1.19 |
| TKAEKYVNKAK [PLCG1_Y991] | 0.503 |
| PELIDYGKLWK [ACTN1_Y193_R197W] | 1.31 |

The sequences below were run against EPHB2 (UniProt P29323) in the same assay as above.
EPHB2, sequence (P29323 whole entry, looked up): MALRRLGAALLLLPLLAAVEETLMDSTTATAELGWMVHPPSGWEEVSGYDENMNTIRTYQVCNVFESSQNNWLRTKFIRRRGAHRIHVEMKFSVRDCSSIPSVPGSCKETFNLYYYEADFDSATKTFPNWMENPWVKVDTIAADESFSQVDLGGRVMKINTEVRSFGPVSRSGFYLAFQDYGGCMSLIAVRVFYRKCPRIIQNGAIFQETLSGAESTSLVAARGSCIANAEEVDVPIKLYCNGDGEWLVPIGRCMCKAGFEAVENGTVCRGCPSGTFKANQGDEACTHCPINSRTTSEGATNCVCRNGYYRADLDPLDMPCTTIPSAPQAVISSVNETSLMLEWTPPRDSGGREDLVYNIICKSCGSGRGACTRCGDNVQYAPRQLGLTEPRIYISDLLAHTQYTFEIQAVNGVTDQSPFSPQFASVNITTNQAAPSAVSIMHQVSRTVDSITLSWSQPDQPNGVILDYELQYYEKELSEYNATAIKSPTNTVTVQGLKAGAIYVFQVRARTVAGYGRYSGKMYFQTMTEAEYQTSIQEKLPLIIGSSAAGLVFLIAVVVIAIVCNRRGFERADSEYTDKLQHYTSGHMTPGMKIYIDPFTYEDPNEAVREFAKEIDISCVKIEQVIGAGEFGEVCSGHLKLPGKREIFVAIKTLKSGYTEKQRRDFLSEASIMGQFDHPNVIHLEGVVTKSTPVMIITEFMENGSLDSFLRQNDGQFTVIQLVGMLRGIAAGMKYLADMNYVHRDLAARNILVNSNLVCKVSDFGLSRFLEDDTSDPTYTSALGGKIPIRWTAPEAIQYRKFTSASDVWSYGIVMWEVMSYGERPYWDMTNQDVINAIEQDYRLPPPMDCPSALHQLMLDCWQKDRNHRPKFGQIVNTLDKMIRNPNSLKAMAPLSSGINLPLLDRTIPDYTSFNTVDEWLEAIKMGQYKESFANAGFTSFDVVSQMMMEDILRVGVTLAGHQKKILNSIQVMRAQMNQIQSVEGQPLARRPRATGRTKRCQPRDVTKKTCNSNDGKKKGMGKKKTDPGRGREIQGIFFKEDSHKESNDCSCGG

| Sequence | phosphorylation enrichment |
| --- | --- |
| GFRVCYTPDSR [PTPRF_Y451_Y450C_YF] | 0.512 |
| HEGKIYEFNQV [ZNF665_Y162_YF] | 1.17 |
| RLSELYLRRNP [CFAP410_Y68_R73P] | 0.477 |
| RRGTRYMFSRP [RPL21_Y13] | 0.768 |
| FIILIYAMKKK [SLCO1B1_Y645_YF] | 0.385 |
| LIEQAYDNPHE [PRPF8_Y871] | 0.824 |
| FKNGDYSEVMK [LCT_Y1638_N1639S] | 0.877 |
| IIEDPYYGNDF [ACP1_Y132_S137F] | 0.666 |
| HTLMKYTDGDQ [PUS7L_Y94_I92M] | 0.634 |
| VIKDKYPKAHF [APTX_Y209_R213H_YF] | 0.3 |
| AGQEDYDRLRP [CDC42_Y64] | 0.654 |
| GTVRDYPDFSP [ANXA3_Y15] | 0.559 |
| SGPRCYTIAAL [TTR_Y125_R124C] | 0.403 |
| YGGRDYSLDEF [MYOF_Y1705] | 0.609 |
| SNKLTYGTMVF [ACOX1_Y275] | 0.604 |
| EPTPGYEVSQR [TSC2_Y1788_G1791S] | 0.549 |
| RKLASYRSCLL [DHX37_Y1080] | 0.492 |

| Sequence | phosphorylation enrichment |
| --- | --- |
| QDLLLYQTHSE [PKHD1_Y255_F253L] | 1.94 |
| GGRKGYGDFSR [RECQL5_Y478] | 0.354 |
| KVFRVYQGQQP [MUTYH_Y494] | 0.415 |
| LKLKAYRFSIS [LCT_Y974_V971L] | 0.948 |
| GHLFAYDWIRI [BEST1_Y227_S231R_YF] | 0.641 |
| AFPVSYSSSSA [RET_Y687_G691S] | 0.425 |
| FIGCIYLYLTK [GARS1_Y414_R412C] | 0.451 |
| GFEEAYSVSKK [PAFAH1B1_Y28_F31S_YF] | 0.353 |
| FLLRVYSIFSK [SGCE_Y38_T36R] | 0.402 |
| VGGRIYIDDGL [PKLR_Y218] | 0.431 |
| MDYRSYPREYG [RBM10_Y44] | 0.402 |
| EGELRYMHSRV [ABCD1_Y281_K276E] | 0.439 |
| AIIGIYNLRDD [CDH23_Y2949_I2950N] | 0.437 |
| KAIMTYVFSFY [ACTN4_Y260_S262F] | 0.592 |
| TKAEKYVNKAK [PLCG1_Y991] | 0.293 |
| PELIDYGKLWK [ACTN1_Y193_R197W] | 0.683 |
